± gives the standard deviation of the averaged measurements.
B1: library; a variant is named by its letters at X, in order (parent)
chain: MNIQIGELAKRTACPVVTIRFYEQEGLLPPPGRSRGNFRLYGEEHVERLQFIRHCRSLDMPLSDVRTLLSYRKRPDQDCGEVXMLLDEHIRQVESRIGALLELKHHLVELREACSGARPAQSCGILQXLSXCVCXTRGTTAHXSD

How the values were obtained:
[1] = variants of: B1; assay: sfGFP reporter fluorescence (15 h) (µM FITC); higher = higher leak; settings: library round: Round 2; ligand: none
Description: (§1)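 Cell-free biosensing: 1 µL Echo-assembled CFE reactions with linear PbrR variant templates (5 nM) and pPbrR-sfGFP reporter, with 1 µM Pb, 30 µM Zn or no ligand; endpoint sfGFP fluorescence after 15 h at 30 °C calibrated as µM FITC. Round 2 ML-predicted PbrR mutants; up to 3 biological replicates.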

[2] = variants of: B1; assay: sfGFP reporter fluorescence (15 h) (µM FITC); higher = stronger transcriptional activation; settings: library round: Round 2
Description: as §1

Row | Variant | sfGFP reporter fluorescence [1] | sfGFP reporter fluorescence ([2]; ligand: 1 µM Pb) | sfGFP reporter fluorescence ([2]; ligand: 30 µM Zn)
1 | NGAAP L107C | 1.86 ± 0.29 | 2.29 ± 0.21 | 3.05 ± 0.55
2 | NMDDA M60L | 0.805 ± 0.062 | 1.88 ± 0.22 | 3.33 ± 0.49
3 | NGTAT | 0.0539 ± 0.0037 | 0.0908 ± 0.0051 | 0.937 ± 0.052
4 | TIDDP D64K K104V | 0.156 ± 0.022 | 0.472 ± 0.075 | 2.62 ± 0.29
5 | TGAYC | 0.05432 ± 0.00051 | 0.085 ± 0.0051 | 0.699 ± 0.064
6 | NADDP P61N D64K K104V | 0.917 ± 0.079 | 1.61 ± 0.16 | 3.1 ± 0.27
7 | NICDP K104R | 0.0714 ± 0.0069 | 0.134 ± 0.0046 | 0.244 ± 0.034
8 | NIDDP I90L K104V L107C | 0.0665 ± 0.003 | 0.0702 ± 0.0034 | 0.178 ± 0.014
9 | NGADY V133A | 0.0753 ± 0.0056 | 0.124 ± 0.0081 | 1.15 ± 0.1
10 | NIDAK L107C G124A | 0.814 ± 0.086 | 2.25 ± 0.053 | 3.09 ± 0.3
11 | SGDDP I90L V108N | 0.0447 ± 0.0012 | 0.04614 ± 0.00039 | 0.0897 ± 0.013
12 | NGDDP | 0.0488 ± 0.0061 | 0.0602 ± 0.0046 | 0.684 ± 0.074
13 | NGDAP P61D D64K L107C | 2.53 ± 0.22 | 1.89 ± 0.26 | 2.38 ± 0.23
14 | NGDRP P61N D64A | 0.111 ± 0.007 | 0.221 ± 0.0096 | 1.54 ± 0.25
15 | NHCDP I125V | 0.0459 ± 0.0044 | 0.0526 ± 0.0016 | 0.0631 ± 0.0035
16 | TGDAA E112I | 0.04637 ± 0.00034 | 0.0525 ± 0.0024 | 0.108 ± 0.0066
17 | NGHAY | 0.0533 ± 0.003 | 0.0816 ± 0.0062 | 0.791 ± 0.037
18 | NGCAP S130A | 0.0466 ± 0.011 | 0.0819 ± 0.0045 | 0.429 ± 0.066
19 | NHCDL E109L | 0.0622 ± 0.0037 | 0.0798 ± 0.0072 | 0.512 ± 0.062
20 | TGSPP | 0.0436 ± 0.0022 | 0.125 ± 0.0052 | 0.305 ± 0.0072
21 | TGDDP I97A K104G | 0.0644 ± 0.0063 | 0.155 ± 0.025 | 0.412 ± 0.04
22 | NEDAT | 0.0492 ± 0.001 | 0.0597 ± 0.0011 | 0.594 ± 0.053
23 | NIDAK M84A L107C | 1.54 ± 0.14 | 2.6 ± 0.14 | 4.03 ± 0.52

Row | Variant | sfGFP reporter fluorescence [1] | sfGFP reporter fluorescence ([2]; ligand: 1 µM Pb) | sfGFP reporter fluorescence ([2]; ligand: 30 µM Zn)
24 | NICDP M60L D64K | 2.32 ± 0.17 | 3.17 ± 0.17 | 3.67 ± 0.38
25 | TIDAP L107C G124A | 0.27 ± 0.037 | 1.38 ± 0.23 | 2.81 ± 0.45
26 | TIDSP L107C | 0.384 ± 0.026 | 1.42 ± 0.32 | 3.28 ± 0.26
27 | NGDAR E112I | 0.0495 ± 0.0017 | 0.054 ± 0.002 | 0.35 ± 0.016
28 | NGAAS | 0.0633 ± 0.001 | 0.107 ± 0.011 | 1.08 ± 0.1
29 | NIADP L107C | 2.06 ± 0.19 | 3.57 ± 0.56 | 3.67 ± 0.32
30 | TGCDI | 0.0463 ± 0.0019 | 0.0711 ± 0.0029 | 0.0916 ± 0.0046
31 | NGCAL | 0.0515 ± 0.0016 | 0.0668 ± 0.0024 | 0.255 ± 0.022
32 | NSEPP | 0.0629 ± 0.0028 | 0.145 ± 0.014 | 1.79 ± 0.34
33 | TGAPW | 0.0521 ± 0.00089 | 0.146 ± 0.014 | 0.264 ± 0.014
34 | TGDDW L126I | 0.0487 ± 0.0018 | 0.04581 ± 0.00039 | 0.0773 ± 0.00089
35 | TGCDL | 0.045 ± 0.00089 | 0.0743 ± 0.011 | 0.0958 ± 0.0017
36 | TGCDT L129I | 0.0433 ± 0.0032 | 0.0464 | 0.0525 ± 0.0028
37 | NIEDP L107C | 1.74 ± 0.23 | 2.69 ± 0.47 | 3.33 ± 0.68
38 | NGSRP L126I | 0.0416 ± 0.0022 | 0.0457 ± 0.0021 | 0.333 ± 0.0046
39 | NGDAM Q121A | 0.0666 ± 0.0079 | 0.106 ± 0.0059 | 1.36 ± 0.13
40 | NPDAP I90L | 0.0467 ± 0.0027 | 0.04301 ± 0.00034 | 0.0482 ± 0.0039
41 | NGCDP P61N H106A | 0.0622 ± 0.0038 | 0.166 ± 0.0088 | 0.457 ± 0.079
42 | NGDDP P61E D64K E112H | 0.157 ± 0.027 | 0.377 ± 0.021 | 1.95 ± 0.22
43 | NIDDP M60L D64K R111L | 1.98 ± 0.27 | 3.14 ± 0.19 | 3.92 ± 0.41
44 | TGCAT | 0.0488 ± 0.002 | 0.0664 ± 0.0029 | 0.09 ± 0.0056
45 | NHDDA E109L | 0.0459 ± 0.0013 | 0.0809 ± 0.0052 | 0.343 ± 0.014

— the supplement of paper PMC12783771
